Target: full-length (FL) UBQLN2 (UniProt Q9UHD9)
Assay: NMR titration

## ubiquitin (Ub) (from UniProt P0CG48 1-76) (natural protein; other documents disagree on this pair)
  Kd: 3 µM

From paper PMC9346500
